From patent US20240226230A1 (MAYO FOUNDATION FOR MEDICAL EDUCATION AND RESEARCH, published 2024)
Where no end group is shown, it is not given here.

Experiments:
[1] = molecular target: T1, Untagged KPNB1 (Homo sapiens (Human), UniProt Q14974 1-876); assay: GFP-Trap IP from HEK293T lysates, western blot
T1 construct: KPNB1 amplified by PCR and cloned into pEGFP-C1 lacking the GFP tag; also called Wildtype KPNB1
From the text: FIGS. 29A-29C: Untagged KPNB1 interacts with both the RRM2 and PrLD of TDP-CTF. FIG. 29A) (Left) Lysates from HEK293T cells expressing GFP alone, or untagged KPNB1 with GFP, GFP-TDP-CTF or GFP-TDP43^WT were subjected to immunoprecipitation with GFP-Trap magnetic beads. Whole cell lysates (input) and immunoprecipitates (IP) were subjected to western blot analysis using indicated antibodies. (Right) Quantification of relative KPNB1 levels in IP normalized by KPNB1 levels in input. Statistical analysis was performed using one-way ANOVA and Bonferroni's post hoc test (**p<0.01, ***p<0.001, n=3). […] FIG. 29C) (Left) Lysates from HEK293T cells expressing GFP alone, or untagged KPNB1 with GFP, GFP-TDP-CTF, GFP-TDP-CTF^non-PrLD or GFP-TDP-PrLD were subjected to immunoprecipitation with GFP-Trap magnetic beads. Whole cell lysates (input) and immunoprecipitates (IP) were subjected to western blot analysis using indicated antibodies. (Right) Quantification of relative KPNB1 levels in IP normalized by KPNB1 levels in input. Statistical analysis was performed using one-way ANOVA and Bonferroni's post hoc test (***p<0.001, n=3).
FIGS. 31A-31C: The PrLD of TDP-43 interacts with FG-Nups and KPNB1. FIG. 31A) Immunofluorescence (IF) of HEK293T cells expressing GFP or GFP-TDP-PrLD and stained for endogenous Nup98 and Nup62. TDP-PrLD forms small cytoplasmic foci positive for Nup62. FIG. 31B) IF of HEK293T cells expressing GFP or GFP-TDP-PrLD and stained for endogenous KPNB1. KPNB1 colocalizes with TDP-PrLD foci in the cytoplasm. Hoechst staining was used to outline nuclei. Scale bar: 5 μm. FIG. 31C) Lysates from HEK293T cells expressing GFP or GFP-TDP-PrLD were subjected to immunoprecipitation with GFP-Trap magnetic beads. Whole cell lysates (input) and immunoprecipitates (IP) were subjected to western blot analysis using indicated antibodies. The PrLD of TDP-43 interacts with Nup62, Nup98 and KPNB1, but not with Ran.
HEK293T cells were seeded in 6-well plates and transfected for 48 hours. Cells were then lysed in IP Lysis buffer (Fisher) supplemented with a protease inhibitor cocktail (Roche), and were centrifuged at 15000 rpm for 20 minutes at 4° C. A small aliquot of the recovered supernatant was set aside (input).

[2] = molecular target: T2, GFP-KPNB1 full-length (FL) (Homo sapiens (Human), UniProt Q14974 1-876); assay: co-IP of GFP-tagged KPNB1 truncations, western blot
T2 construct: the plasmid is GFP-KPNB1 (Euroscarf #P30478); The linker is stated in general for fluorescent protein fusions; also called EGFP-KPNB1; GFP-KPNB1^FL; not shown: GFP/EGFP tag (pEGFP-C1, Clontech)
T2 sequence (Q14974 other isoform, or with tags, fused parts or gaps): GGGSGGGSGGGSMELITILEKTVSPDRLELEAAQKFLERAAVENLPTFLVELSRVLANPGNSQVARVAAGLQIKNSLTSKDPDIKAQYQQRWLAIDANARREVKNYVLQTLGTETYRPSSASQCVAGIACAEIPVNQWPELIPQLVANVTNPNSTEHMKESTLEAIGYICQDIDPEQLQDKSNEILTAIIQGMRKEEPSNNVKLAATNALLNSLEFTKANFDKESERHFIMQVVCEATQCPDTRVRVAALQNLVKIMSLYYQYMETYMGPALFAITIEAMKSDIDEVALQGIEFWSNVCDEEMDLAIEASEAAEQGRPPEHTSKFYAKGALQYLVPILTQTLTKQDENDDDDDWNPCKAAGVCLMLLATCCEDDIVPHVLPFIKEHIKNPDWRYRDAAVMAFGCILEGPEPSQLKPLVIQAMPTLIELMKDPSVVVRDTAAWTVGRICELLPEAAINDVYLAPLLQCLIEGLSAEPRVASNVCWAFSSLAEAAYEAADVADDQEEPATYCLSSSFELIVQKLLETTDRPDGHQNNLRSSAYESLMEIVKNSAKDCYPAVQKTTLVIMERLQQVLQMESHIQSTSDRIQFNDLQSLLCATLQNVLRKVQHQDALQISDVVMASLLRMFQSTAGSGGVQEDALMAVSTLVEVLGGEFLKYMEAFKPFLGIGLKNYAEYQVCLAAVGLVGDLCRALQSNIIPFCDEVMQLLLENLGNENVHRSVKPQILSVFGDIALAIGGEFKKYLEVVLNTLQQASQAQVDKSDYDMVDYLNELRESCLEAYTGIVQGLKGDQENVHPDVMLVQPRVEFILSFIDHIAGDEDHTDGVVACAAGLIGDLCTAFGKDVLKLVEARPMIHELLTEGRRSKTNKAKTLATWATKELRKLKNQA
From the text: FIG. 21A) Schematic domain structure of KPNB1. KPNB1 is comprised of 19 HEAT repeats (H1-19). RanGTP and importin-α interact with H1-8 and H8-19, respectively. FG-Nups bind to two regions of KPNB1, H5-7 and H14-16. FIG. 21B) Lysates from HEK293T cells expressing GFP, GFP-KPNB1 full-length (FL), N-terminal fragments of KPNB1 (H1-9 . . . H1) or the C-terminal fragment of KPNB1 (H10-19) were subjected to immunoprecipitation with GFP-Trap magnetic beads. Whole cell lysates (input) and immunoprecipitates (IP) were subjected to western blot analysis using indicated antibodies. KPNB1 H1-8, the smallest fully active KPNB1 fragment in reducing TDP-43 aggregation, strongly interacts with FG-Nups and Ran, and weakly with importin-al in comparison with full-length KPNB1. FIG. 21C) (Top) Schematic domain structure of KPNB1 H1-8^mNIS harboring four missense mutations (1178A, F217A, Y255A, I263R) in the nucleoporin-interacting site (NIS). (Bottom) Lysates from HEK293T cells expressing GFP, GFP-KPNB1 H1-8^WT or H1-8^mNIS were subjected to immunoprecipitation with GFP-Trap magnetic beads. Whole cell lysates (input) and immunoprecipitates (IP) were subjected to western blot analysis using indicated antibodies. […] Hoechst staining was used to outline nuclei. Scale bar: 5 μm. […] Statistical analysis was performed using one-way ANOVA and Bonferroni's post hoc test (**p<0.01, ***p<0.001, n=4). FIG. 21F) IF of HEK293T cells co-expressing GFP-(GR)₁₀₀ with an empty plasmid (ctrl), FLAG-tagged KPNB1 H1-8^WT or H1-8^mNIS and stained for endogenous TDP-43. Unlike KPNB1 H1-8^mNIS, KPNB1 H1-8^WT prevents the sequestration of endogenous TDP-43 in cytoplasmic GR aggregates. Arrowheads point to cytoplasmic GR aggregates. Hoechst staining was used to outline nuclei. Scale bar: 5 μm.

[3] = molecular target: T3, mCherry-KPNB1 (Homo sapiens (Human), UniProt Q14974 1-876); assay: co-IP with mCherry-KPNB1, western blot
T3 construct: mCherry was cloned into GFP-KPNB1; also called mCherry-tagged KPNB1; not shown: mCherry tag (mCherry-C1, Clontech)
T3 sequence (Q14974 other isoform, or with tags, fused parts or gaps): as above
From the text: FIG. 30B) Lysates from HEK293T cells co-expressing mCherry-KPNB1 with GFP, GFP-TDP-CTF or GFP-TDP-CTF C-terminal deletion constructs were subjected to immunoprecipitation with RFP-Trap magnetic beads. Whole cell lysates (input) and immunoprecipitates (IP) were subjected to western blot analysis using indicated antibodies. Deletion of amino-acids 230-240 in TDP-CTF reduced its binding to KPNB1. FIG. 30C) Lysates from HEK293T cells co-expressing mCherry-KPNB1 with GFP, GFP-TDP-CTF or GFP-TDP-CTF N-terminal deletion constructs were subjected to immunoprecipitation with RFP-Trap magnetic beads. Whole cell lysates (input) and immunoprecipitates (IP) were subjected to western blot analysis using indicated antibodies. Deletion of amino-acids 230-240 in TDP-CTF reduces its binding to KPNB1. TDP-PrLD weakly interacts with KPNB1. FIG. 30D) (Left) Lysates from HEK293T cells co-expressing mCherry-KPNB1 with GFP, GFP-TDP-CTF^WT or GFP-TDP-CTF^Δ230-240 were subjected to immunoprecipitation with RFP-Trap magnetic beads. […] (Right) Quantification of relative GFP levels in IP normalized by GFP levels in input confirm that GFP-TDP-CTF^Δ230-240 interacts less with mCherry-KPNB1. […] FIG. 30F) Western blot analysis and quantification of insoluble GFP-tagged TDP-CTF^WT or TDP-CTF^Δ230-240 in HEK293T cells expressing mCherry or mCherry-KPNB1. […]

T1 sequence (Q14974 whole entry): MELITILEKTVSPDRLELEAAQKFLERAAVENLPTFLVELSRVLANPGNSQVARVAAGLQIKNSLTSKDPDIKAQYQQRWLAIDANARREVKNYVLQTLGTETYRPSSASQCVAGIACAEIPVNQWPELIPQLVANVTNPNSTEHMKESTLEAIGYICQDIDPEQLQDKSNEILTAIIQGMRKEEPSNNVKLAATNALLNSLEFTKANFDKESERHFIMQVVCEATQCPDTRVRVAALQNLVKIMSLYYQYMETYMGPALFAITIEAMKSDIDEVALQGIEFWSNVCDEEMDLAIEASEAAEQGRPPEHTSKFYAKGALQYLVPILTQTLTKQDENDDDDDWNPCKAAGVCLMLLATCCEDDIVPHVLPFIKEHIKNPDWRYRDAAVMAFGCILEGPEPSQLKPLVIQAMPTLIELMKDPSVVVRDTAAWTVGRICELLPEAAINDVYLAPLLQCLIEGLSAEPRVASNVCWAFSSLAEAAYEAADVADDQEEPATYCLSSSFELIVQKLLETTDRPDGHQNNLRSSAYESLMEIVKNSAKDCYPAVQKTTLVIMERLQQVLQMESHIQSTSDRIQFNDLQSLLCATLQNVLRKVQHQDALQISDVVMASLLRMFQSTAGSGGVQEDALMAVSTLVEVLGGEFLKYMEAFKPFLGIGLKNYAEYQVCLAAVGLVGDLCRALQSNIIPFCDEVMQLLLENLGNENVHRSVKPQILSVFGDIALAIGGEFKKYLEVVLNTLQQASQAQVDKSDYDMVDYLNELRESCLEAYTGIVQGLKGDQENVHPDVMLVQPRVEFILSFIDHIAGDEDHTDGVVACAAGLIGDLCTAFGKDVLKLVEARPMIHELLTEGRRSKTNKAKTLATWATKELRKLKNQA

Row | Binder | binding result [2] | further results
1 | GFP-TDP-CTF non-PrLD (other, human, not shown: GFP/EGFP tag (pEGFP-C1, Clontech)) GGGSGGGSGGGSREFFSQYGDVMDVFIPKPFRAFAFVTFADDQIAQSLCGEDLIIKGISVHISNAEPKHNSNRQLERSG |  | binding result [1]: binds
2 | endogenous Nup50 (other, human, UniProt Q9UKX7 1-468, looked up, Detected with anti-Nup50) MAKRNAEKELTDRNWDQEDEAEEVGTFSMASEEVLKNRAIKKAKRRNVGFESDTGGAFKGFKGLVVPSGGGRFSGFGSGAGGKPLEGLSNGNNITSAPPFASAKAAADPKVAFGSLAANGPTTLVDKVSNPKTNGDSQQPSSSGLASSKACVGNAYHKQLAALNCSVRDWIVKHVNTNPLCDLTPIFKDYEKYLANIEQQHGNSGRNSESESNKVAAETQSPSLFGSTKLQQESTFLFHGNKTEDTPDKKMEVASEKKTDPSSLGATSASFNFGKKVDSSVLGSLSSVPLTGFSFSPGNSSLFGKDTTQSKPVSSPFPTKPLEGQAEGDSGECKGGDEEENDEPPKVVVTEVKEEDAFYSKKCKLFYKKDNEFKEKGIGTLHLKPTANQKTQLLVRADTNLGNILLNVLIPPNMPCTRTGKNNVLIVCVPNPPIDEKNATMPVTMLIRVKTSEDADELHKILLEKKDA | binds | 
3 | endogenous Nup62 (other, human, UniProt P37198 2-522, looked up, Detected with anti-Nup62) SGFNFGGTGAPTGGFTFGTAKTATTTPATGFSFSTSGTGGFNFGAPFQPATSTPSTGLFSLATQTPATQTTGFTFGTATLASGGTGFSLGIGASKLNLSNTAATPAMANPSGFGLGSSNLTNAISSTVTSSQGTAPTGFVFGPSTTSVAPATTSGGFSFTGGSTAQPSGFNIGSAGNSAQPTAPATLPFTPATPAATTAGATQPAAPTPTATITSTGPSLFASIATAPTSSATTGLSLCTPVTTAGAPTAGTQGFSLKAPGAASGTSTTTSTAATATATTTSSSSTTGFALNLKPLAPAGIPSNTAAAVTAPPGPGAAAGAAASSAMTYAQLESLINKWSLELEDQERHFLQQATQVNAWDRTLIENGEKITSLHREVEKVKLDQKRLDQELDFILSQQKELEDLLSPLEELVKEQSGTIYLQHADEEREKTYKLAENIDAQLKRMAQDLKDIIEHLNTSGAPADTSDPLQQICKILNAHMDSLQWIDQNSALLQRKVEEVTKVCEGRRKEQERSFRITFD | binds | 
4 | {GFP}-GGGSGGGSGGGSREFFSQYGDVMDVFIPKPFRAFAFVTFADDQI (other, human, also: GFP tag fused N-terminally, not in chain, (GGGS)3 linker in chain, not shown: GFP/EGFP tag (pEGFP-C1, Clontech)) [GFP-TDP-CTF 208-239] |  | binding result [3]: binds
